Results: US20260092115A1 (Chugai, published 2026)
Changes are numbered by the printed parent chain.

T1: human FcγRIIa, type R, extracellular domain, His-tagged (human, UniProt P12318 34-217)
T1 construct: extracellular domain; also called hFcγR IIa R
T1 sequence (looked up): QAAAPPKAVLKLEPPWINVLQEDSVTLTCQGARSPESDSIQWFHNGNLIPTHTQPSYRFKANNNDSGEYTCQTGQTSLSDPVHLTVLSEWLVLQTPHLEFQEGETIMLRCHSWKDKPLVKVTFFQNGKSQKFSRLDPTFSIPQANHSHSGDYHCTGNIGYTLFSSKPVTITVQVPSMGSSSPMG

T2: human FcγRIIa, type H, extracellular domain, His-tagged (human, UniProt P12318 34-217)
T2 construct: extracellular domain; also called hFcγR IIa H
T2 sequence (looked up): T1 sequence (looked up) with R134H

T3: human FcγRIIb extracellular domain, His-tagged (human, UniProt P31994 43-217)
T3 construct: extracellular domain; also called hFcγR IIb
T3 sequence (looked up): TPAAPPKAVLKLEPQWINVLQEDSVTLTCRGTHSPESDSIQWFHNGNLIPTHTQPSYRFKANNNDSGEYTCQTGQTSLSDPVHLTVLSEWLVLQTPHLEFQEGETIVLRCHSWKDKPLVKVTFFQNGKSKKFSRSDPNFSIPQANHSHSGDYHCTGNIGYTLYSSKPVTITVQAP

B1: 04H1637-G1m/04L1610-lam1 (antibody, human IgG1, lambda)
heavy: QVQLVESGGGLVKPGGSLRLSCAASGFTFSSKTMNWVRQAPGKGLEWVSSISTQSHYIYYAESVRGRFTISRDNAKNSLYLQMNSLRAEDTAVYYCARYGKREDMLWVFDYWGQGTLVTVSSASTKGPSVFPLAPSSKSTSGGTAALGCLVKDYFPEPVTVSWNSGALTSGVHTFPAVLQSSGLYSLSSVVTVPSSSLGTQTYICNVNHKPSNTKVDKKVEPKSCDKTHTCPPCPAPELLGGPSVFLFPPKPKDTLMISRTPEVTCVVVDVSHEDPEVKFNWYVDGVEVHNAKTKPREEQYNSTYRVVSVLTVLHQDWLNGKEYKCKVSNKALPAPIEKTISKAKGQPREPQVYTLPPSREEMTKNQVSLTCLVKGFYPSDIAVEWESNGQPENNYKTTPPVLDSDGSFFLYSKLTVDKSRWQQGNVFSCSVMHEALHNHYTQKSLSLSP
light: QSALTQPPSASGSPGQSVTISCEGPSTGVGDYNWVHWYQQHPGKAPKLMIYFTSKKPSGVPDRFSGSKSGNTASLTVSGLQAEDEADYYCQTYAAPLGPMFGGGTKLTVLGQPKAAPSVTLFPPSSEELQANKATLVCLISDFYPGAVTVAWKADSSPVKAGVETTTPSKQSNNKYAASSYLSLTPEQWKSHRSYSCQVTHEGSTVEKTVAPTECS
B2: 04H1654-KT462/04L1610-lam1//04H1656-HT445/04L1610-lam1 (antibody, human IgG1, lambda)
heavy 1: QVQLVESGGGVVQPGGSLRLSCAASGFTFSSKTMNWVRQAPGKGLEWVSSISTQSHYIYYARSVRGRFTISRDNAKNSLYLQMNSLRAEDTAVYYCARYGKREDMLWVFDYWGQGTLVTVSSASTKGPSVFPLAPSSKSTSGGTAALGCLVKDYFPEPVTVSWNSGALTSGVHTFPAVLQSSGLYSLSSVVTVPSSSLGTQTYICNVNHKPSNTKVDKRVEPKSCDKTHTCPPCPAPEFQWGPMVFLFPPKPKDVLMISRTPEVTCVVVDVSDEEPEVKFNWYVDGVEVHNAKTKPREEQYNATYRVVSVLPVLHQDWLNGKEYKCKVSNDALPAPIEKTISKAKGQPREPQVYTLPPSRKEMTKNQVSLTCLVKGFYPSDIAVEWESNGQPENNYKTTPPVLDSDGSFFLYSKLTVDKSRWQQGNVFSCSVMHEALHNHYTQKSLSLSP
heavy 2: QVQLVESGGGVVQPGGSLRLSCAASGFTFSSKTMNWVRQAPGKGLEWVSSISTQSHYIYYAESVRGRFTISRDNAKNSLYLQMNSLRAEDTAVYYCARYGAREDMLWVFDYWGQGTLVTVSSASTKGPSVFPLAPSSKSTSGGTAALGCLVKDYFPEPVTVSWNSGALTSGVHTFPAVLQSSGLYSLSSVVTVPSSSLGTQTYICNVNHKPSNTKVDKRVEPKSCDKTHTCPPCPAPELLAGPSVFLFPPKPKDVLMISRTPEVTCVVVDVSHEEPEVKFNWYVDGVEVHNAKTKPREEQYNATYRVVSVLPVLHQDWLNGKEYKCKVSNDALPKPDEETISKAKGQPREPQVYTLPPSREEMTKNQVSLTCLVKGFYPSDIAVEWESNGQPENNYKTTPPVLDSDGSFFLYSKLTVDKSRWQQGNVFSCSVMHEALHNHYTQESLSLSP
light: B1 light
notes: Heterodimerized IgG1 (IGHG1*03) Fc variant
B3: 04H1654-KT461/04L1610-lam1//04H1656-HT443/04L1610-lam1 (antibody, human IgG1, lambda)
heavy 1: B2 heavy 1 with I337E
heavy 2: B2 heavy 2 with K335A, D337E
light: B1 light
notes: as for B2
B4: 04H1637-Kn462/04L1610-lam1//04H1637-H1445/04L1610-lam1 (antibody, human IgG1, lambda)
heavy 1: B2 heavy 1 with V11L, Q13K, R62E, R219K, Y354C, K361D, M363L, T371W
heavy 2: B2 heavy 2 with V11L, Q13K, A101K, R219K, E361C, M363L, T371S, L373A, Y412V, E444K
light: B1 light
notes: Heterodimerized IgG1 Fc variant; also called 04H1637-Kn462/04L1610-lam1//04H1637-Hl445/04L1610-lam1

target: T4, human FcRn (human, UniProt P55899 24-290; P61769 21-119); experiment: KD of 04H1637-G1m/04L1610-lam1 divided by KD of this antibody; SPR pH 6.0
T4 construct: Prepared by the method of WO 2010/107110; also called hFcRn
Procedure: The interaction between the generated antibodies and human FcRn was analyzed by the following method using Biacore T200. 50 mM Na-Phosphate, 150 mM NaCl, 0.05% Tween20 (pH 6.0) was used as the running buffer, and the assay was performed at 25° C. For the sensor chip, Series S SA (GE Healthcare) chips onto which CaptureSelect Human Fab-lambda Kinetics Biotin Conjugate (Thermo Fisher Scientific) was immobilized were used. The antibodies of interest were captured onto these chips and FcRn diluted in the running buffer was allowed to interact with them. Chips were regenerated with 10 mM Glycine-HCl (pH 1.5) and 25 mM NaOH, and assay was performed by repeatedly capturing antibodies. The dissociation constant for FcRn of each antibody was calculated using the steady state model, using Biacore T200 Evaluation Software 2.0.
“Relative value to KD between G1m and hFcRn” and “Relative value to KD between G1m and hFcγRs” are values obtained by dividing the KD value of 04H1637-G1m/04L1610-lam1 for hFcRn and for each FcγR by the KD value of each variant, respectively. “Relative binding amount” indicates the value obtained by dividing the binding amount of each variant to FcγRIIb by the binding amount of 04H1637-G1m/04L1610-lam1. […] It was shown that all of the generated heterodimerized antibodies had enhanced binding to FcγRIIa and FcγRIIIa as compared with 04H1637-G1m/04L1610-lam1 which has the constant region of native human IgG1. Furthermore, 04H1637-Kn462/04L1610-lam1//04H1637-H1441/04L1610-lam1, 04H1637-Kn462/04L1610-lam1//04H1637-H1445/04L1610-lam1, and 04H1637-Kn461/04L1610-lam1//04H1637-H1443/04L1610-lam1 were all shown to have enhanced binding to FcγRIIa compared to 04H1637-Kn125/04L1610-lam1//04H1637-H1076/04L1610-lam 1 which has the Fc region variant reported in WO 2013/002362.

T4 sequence (P55899 24-290 limits assumed, chain 1 of 2): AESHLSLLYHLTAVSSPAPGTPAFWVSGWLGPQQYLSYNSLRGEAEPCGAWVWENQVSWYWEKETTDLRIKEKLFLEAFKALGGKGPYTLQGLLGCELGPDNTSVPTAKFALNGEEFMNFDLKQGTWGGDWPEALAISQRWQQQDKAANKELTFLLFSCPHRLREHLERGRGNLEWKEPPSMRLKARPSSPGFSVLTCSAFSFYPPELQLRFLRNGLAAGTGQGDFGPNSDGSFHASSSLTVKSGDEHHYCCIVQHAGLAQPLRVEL
T4 sequence (P61769 21-119 limits assumed, chain 2 of 2): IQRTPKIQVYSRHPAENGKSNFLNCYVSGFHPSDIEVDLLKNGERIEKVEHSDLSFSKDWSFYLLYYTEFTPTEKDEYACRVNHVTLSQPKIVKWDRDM

Q: B1 was tested. Which “Relative value to KD between G1m and hFcRn” value did it give?
A: 1 ratio

Q: How did the “Relative value to KD between G1m and hFcRn” value turn out when B2 was run?
A: 0.9 ratio

Q: B3 was tested. Which “Relative value to KD between G1m and hFcRn” value did it give?
A: 0.9 ratio

target: T5, human FcγRIa extracellular domain, His-tagged (human, UniProt P12314 16-292); experiment: KD of 04H1637-G1m/04L1610-lam1 divided by KD of this antibody; SPR pH 7.4
T5 construct: also called hFcγR Ia
Procedure: (§1) The interaction between the generated antibodies and human FcγRs was analyzed by the following method using Biacore T200. 50 mM Na-Phosphate, 150 mM NaCl, 0.05% Tween20 (pH 7.4) was used as the running buffer, and the assay was performed at 25° C. For the sensor chips, Series S SA (GE Healthcare) chips onto which CaptureSelect Human Fab-lambda Kinetics Biotin Conjugate (Thermo Fisher Scientific) was immobilized were used. The antibodies of interest were captured onto these chips and each FcγR diluted in the running buffer was allowed to interact with them. Chips were regenerated with 10 mM Glycine-HCl (pH 1.5) and 25 mM NaOH, and assay was performed by repeatedly capturing antibodies. The dissociation constants KD (mol/L) for FcγRs of each antibody were calculated using Biacore T200 Evaluation Software 2.0, using the 1:1 Langmuir binding model for FcγRIa and FcγRIIIa and the steady state affinity model for FcγRIIa. For FcγRIIb, the binding amount of FcγRIIb per unit amount of antibody was calculated by correcting the binding amount of FcγRIIb obtained from the sensorgram obtained by the measurement with the amount of antibody captured onto the chip surface.
(§2) “Relative value to KD between G1m and hFcRn” and “Relative value to KD between G1m and hFcγRs” are values obtained by dividing the KD value of 04H1637-G1m/04L1610-lam1 for hFcRn and for each FcγR by the KD value of each variant, respectively. “Relative binding amount” indicates the value obtained by dividing the binding amount of each variant to FcγRIIb by the binding amount of 04H1637-G1m/04L1610-lam1. […] It was shown that all of the generated heterodimerized antibodies had enhanced binding to FcγRIIa and FcγRIIIa as compared with 04H1637-G1m/04L1610-lam1 which has the constant region of native human IgG1.

T5 sequence (P12314 16-292): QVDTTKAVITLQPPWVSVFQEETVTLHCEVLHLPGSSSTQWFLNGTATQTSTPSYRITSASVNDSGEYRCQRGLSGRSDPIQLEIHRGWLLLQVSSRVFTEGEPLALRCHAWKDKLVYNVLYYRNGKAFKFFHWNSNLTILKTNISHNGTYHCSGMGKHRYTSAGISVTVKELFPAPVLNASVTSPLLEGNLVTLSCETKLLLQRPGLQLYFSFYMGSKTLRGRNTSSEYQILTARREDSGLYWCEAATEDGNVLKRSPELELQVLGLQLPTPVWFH

Q: B1 was tested. Which “Relative value to KD between G1m and hFcγRs” value did it give?
A: 1 ratio

Q: With B2 as the binder, how does the “Relative value to KD between G1m and hFcγRs” value read?
A: 1.6 ratio

Q: For B3, which “Relative value to KD between G1m and hFcγRs” value is on record?
A: 1.5 ratio

Q: Which “Relative value to KD between G1m and hFcγRs” value does the source give for B4 here?
A: 0.6 ratio

target: T1, human FcγRIIa, type R, extracellular …; experiment: as above
Procedure: as §1, §2

Q: B1 was tested. Which “Relative value to KD between G1m and hFcγRs” value did it give?
A: 1 ratio

Q: B2 was tested. Which “Relative value to KD between G1m and hFcγRs” value did it give?
A: 13 ratio

Q: For B3, which “Relative value to KD between G1m and hFcγRs” value is on record?
A: 8.4 ratio

Q: B4 was tested. Which “Relative value to KD between G1m and hFcγRs” value did it give?
A: 18.7 ratio

target: T2, human FcγRIIa, type H, extracellular …; experiment: as above
Procedure: as §1, §2

Q: B1 was tested. Which “Relative value to KD between G1m and hFcγRs” value did it give?
A: 1 ratio

Q: Which “Relative value to KD between G1m and hFcγRs” value does the source give for B2 here?
A: 13.9 ratio

Q: B3 was tested. Which “Relative value to KD between G1m and hFcγRs” value did it give?
A: 7.3 ratio

Q: How did the “Relative value to KD between G1m and hFcγRs” value turn out when B4 was run?
A: 37.5 ratio

target: T6, human FcγRIIIa, allotype F158, extracellular domain, His-tagged (human, UniProt P08637 17-208); experiment: as above
T6 construct: extracellular domain; also called hFcγR IIIa F
Procedure: as §1, §2

T6 sequence (P08637 17-208): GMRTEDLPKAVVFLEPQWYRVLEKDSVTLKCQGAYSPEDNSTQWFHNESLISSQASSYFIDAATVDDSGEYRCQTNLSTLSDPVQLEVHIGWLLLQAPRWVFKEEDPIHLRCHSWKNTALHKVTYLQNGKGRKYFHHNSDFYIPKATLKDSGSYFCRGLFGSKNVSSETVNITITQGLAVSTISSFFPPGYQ

Q: With B1 as the binder, how does the “Relative value to KD between G1m and hFcγRs” value read?
A: 1 ratio

Q: Which “Relative value to KD between G1m and hFcγRs” value does the source give for B2 here?
A: 415 ratio

Q: With B3 as the binder, how does the “Relative value to KD between G1m and hFcγRs” value read?
A: 526 ratio

Q: Which “Relative value to KD between G1m and hFcγRs” value does the source give for B4 here?
A: 382 ratio

target: T7, human FcγRIIIa, allotype V158, extracellular domain, His-tagged (human, UniProt P08637 17-208); experiment: as above
T7 construct: extracellular domain; also called hFcγR IIIa V
Procedure: as §1, §2

T7 sequence (P08637 17-208 F176V): as the sequence (P08637 17-208) above, with F160V counted along it

Q: With B1 as the binder, how does the “Relative value to KD between G1m and hFcγRs” value read?
A: 1 ratio

Q: How did the “Relative value to KD between G1m and hFcγRs” value turn out when B2 was run?
A: 110 ratio

Q: Which “Relative value to KD between G1m and hFcγRs” value does the source give for B3 here?
A: 156 ratio

Q: Which “Relative value to KD between G1m and hFcγRs” value does the source give for B4 here?
A: 131 ratio

target: T3, human FcγRIIb extracellular domain, …; experiment: SPR Biacore T200, 25C, pH 7.4; FcγRIIb at 1000 nM, corrected by captured antibody
Procedure: as §1

Q: How did the Binding amount turn out when B1 was run?
A: 0.008 RU per RU of captured antibody

Q: How did the Binding amount turn out when B2 was run?
A: 0.025 RU per RU of captured antibody

Q: How did the Binding amount turn out when B3 was run?
A: 0.025 RU per RU of captured antibody

Q: Which Binding amount does the source give for B4 here?
A: 0.03 RU per RU of captured antibody

target: T3, human FcγRIIb extracellular domain, …; experiment: binding amount of this antibody divided by that of 04H1637-G1m/04L1610-lam1; SPR pH 7.4
Procedure: as §1, §2

Q: For B1, which Relative binding amount is on record?
A: 1 ratio

Q: For B2, which Relative binding amount is on record?
A: 3.1 ratio

Q: B3 was tested. Which Relative binding amount did it give?
A: 3.1 ratio

Q: For B4, which Relative binding amount is on record?
A: 3.7 ratio
